We go through 5 molecules from article PMC8897274 (Structure (London, England : 1993), 2021).

The target in series [1] is T1, DNA ligase (Lig);PCNA1-PCNA2-PCNA3 heterotrimer (S. solfataricus;S. solfataricus, UniProt Q980T8;P57766;Q97Z84;P57765 1-601;1-249;1-245;1-244, |).
T1 sequence 1: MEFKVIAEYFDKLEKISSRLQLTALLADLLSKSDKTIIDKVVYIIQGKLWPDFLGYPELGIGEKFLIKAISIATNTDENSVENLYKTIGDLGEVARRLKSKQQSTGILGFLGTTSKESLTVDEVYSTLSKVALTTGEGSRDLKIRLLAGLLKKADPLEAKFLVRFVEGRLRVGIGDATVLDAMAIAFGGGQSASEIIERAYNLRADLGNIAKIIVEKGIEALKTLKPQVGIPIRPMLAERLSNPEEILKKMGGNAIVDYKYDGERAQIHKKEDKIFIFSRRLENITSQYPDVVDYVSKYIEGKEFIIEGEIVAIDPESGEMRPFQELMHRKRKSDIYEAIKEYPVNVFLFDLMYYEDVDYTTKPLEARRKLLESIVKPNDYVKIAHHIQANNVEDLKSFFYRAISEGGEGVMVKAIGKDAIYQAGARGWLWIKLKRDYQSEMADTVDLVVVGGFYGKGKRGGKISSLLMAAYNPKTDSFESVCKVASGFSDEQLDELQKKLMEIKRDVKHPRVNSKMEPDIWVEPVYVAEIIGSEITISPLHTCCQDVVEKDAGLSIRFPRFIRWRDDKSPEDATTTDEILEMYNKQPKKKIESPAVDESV
T1 sequence 2: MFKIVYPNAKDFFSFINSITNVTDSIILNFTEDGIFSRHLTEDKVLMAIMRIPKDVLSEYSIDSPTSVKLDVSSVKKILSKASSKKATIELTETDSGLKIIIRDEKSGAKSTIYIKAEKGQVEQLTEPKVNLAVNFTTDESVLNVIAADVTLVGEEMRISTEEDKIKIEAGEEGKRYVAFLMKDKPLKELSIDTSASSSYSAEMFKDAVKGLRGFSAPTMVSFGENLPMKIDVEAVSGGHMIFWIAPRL
T1 sequence 3: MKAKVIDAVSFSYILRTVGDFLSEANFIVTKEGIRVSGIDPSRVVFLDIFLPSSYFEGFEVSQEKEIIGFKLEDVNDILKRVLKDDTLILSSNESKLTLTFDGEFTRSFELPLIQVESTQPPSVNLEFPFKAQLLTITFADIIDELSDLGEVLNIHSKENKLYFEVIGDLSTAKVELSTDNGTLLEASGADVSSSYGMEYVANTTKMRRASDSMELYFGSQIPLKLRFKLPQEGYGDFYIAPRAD
T1 sequence 4: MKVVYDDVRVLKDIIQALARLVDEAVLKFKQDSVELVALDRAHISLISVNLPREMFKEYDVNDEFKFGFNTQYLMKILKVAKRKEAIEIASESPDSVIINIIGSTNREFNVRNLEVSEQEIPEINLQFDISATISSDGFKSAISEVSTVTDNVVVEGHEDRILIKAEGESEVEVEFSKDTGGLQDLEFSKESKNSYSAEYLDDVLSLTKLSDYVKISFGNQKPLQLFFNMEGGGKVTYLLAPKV
The series can be described thus: cryo-EM.

Series [2] has as its target T1, DNA ligase (Lig);PCNA1-PCNA2-PCNA3 …. Briefly: cryo-EM. This is another data set of the same source.
For series [3] the target is unchanged. Briefly: gel filtration co-elution.
Series [4] has the same target. The series can be described thus: cryo-EM. This is another data set of the same source.
Series [5] addresses T2, PCNA_(1–2-3) heterotrimer of S. solfataricus (S. solfataricus, UniProt P57766 1-249; Q97Z84 1-245; P57765 1-244).
T2 sequence 1: T1 sequence 2
T2 sequence 2: T1 sequence 3
T2 sequence 3: T1 sequence 4
Briefly: SEC.

Changes are numbered by the printed parent chain.

B1: 47 bp 3'dideoxy nicked DNA (dsDNA)
DNA 1: GTATCCTCGTAGTGCAGATGCGTC
DNA 2: GTCGGACTGATTCGGTAGATCTG
DNA 3: CAGATCTACCGAATCAGTCCGACGACGCATCTGCACTACGAGGATAC
modifications: 3'-dideoxy terminus of upstream strand; 5'PO4 on downstream strand
Consider B1, for which the binding result in series [1] is “binds”.

B2: 47 bp nicked DNA, 5'-adenylated (AppDNA) (dsDNA)
DNA 1: GTATCCTCGTAGTGCAGATGCGTC
DNA 2: GTCGGACTGATTCGGTAGATCTG
DNA 3: B1 DNA 3
modifications: 5'-App (adenylated 5'PO4) on downstream strand; 3'OH at nick
As for B2, the binding result in series [2] is “binds”.

B3: 47 bp ligatable nicked DNA (dsDNA)
DNA 1: GTATCCTCGTAGTGCAGATGCGTC
DNA 2: GTCGGACTGATTCGGTAGATCTG
DNA 3: B1 DNA 3
modifications: 5'PO4 on downstream strand; 3'OH at nick
For B3, the binding result in series [3] is on record as “binds”.

B4: 47 bp end-joined duplex DNA (dsDNA)
DNA 1: GTATCCTCGTAGTGCAGATGCGTCGTCGGACTGATTCGGTAGATCTG
DNA 2: B1 DNA 3
B4: the binding result in series [4] is given as “binds”.

B5: Lig 103/107 QI-AA mutant (enzyme, S. solfataricus)
chain: T1 sequence 1 with Q103A, I107A
In the case of B5, the binding result in series [5] was “binds”.
